Biological target: GLP-1 receptor (Rattus norvegicus) (UniProt P32301)
Assay: competitive cellular ELISA against GLP-1/hIgG2 (INS-1 cells)

Exendin-4, sequence (P26349 48-86): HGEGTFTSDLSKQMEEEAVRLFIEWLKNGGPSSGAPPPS
GLP-1 receptor (Rattus norvegicus), sequence (P32301 22-463): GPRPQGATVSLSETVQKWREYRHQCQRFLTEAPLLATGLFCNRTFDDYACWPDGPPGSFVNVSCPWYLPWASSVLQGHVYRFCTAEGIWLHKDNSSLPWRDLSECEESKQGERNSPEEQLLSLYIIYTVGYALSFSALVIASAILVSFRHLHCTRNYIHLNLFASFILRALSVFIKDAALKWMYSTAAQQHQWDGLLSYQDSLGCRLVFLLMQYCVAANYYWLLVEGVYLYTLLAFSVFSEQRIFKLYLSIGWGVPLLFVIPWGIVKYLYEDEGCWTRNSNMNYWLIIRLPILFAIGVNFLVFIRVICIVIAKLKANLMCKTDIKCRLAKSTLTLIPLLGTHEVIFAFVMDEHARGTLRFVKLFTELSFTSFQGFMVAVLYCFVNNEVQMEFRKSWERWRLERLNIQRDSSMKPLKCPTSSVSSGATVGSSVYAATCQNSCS

For Exendin-4 (from UniProt P26349), the IC50 was 8.15 nM.

Reference: article PMC2939854 (2010)
